Results from article PMC10141391, “Structural Analysis of Bacillus subtilis Sigma Factors” (Microorganisms, 2023).

Target: T1, SigE^17–133 (B. subtilis SigE residues 17–133) (B. subtilis, 15N-labelled)
T1 construct: Cloned BamHI/XhoI into pET28-TxrA (His tag, thioredoxin, TEV site)
T1 chain: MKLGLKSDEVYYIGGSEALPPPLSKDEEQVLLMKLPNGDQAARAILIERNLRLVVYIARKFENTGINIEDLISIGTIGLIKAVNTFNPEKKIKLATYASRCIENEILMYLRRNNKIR
Assay: NMR titration; 1H-15N HSQC chemical shift perturbation; 100 uM 15N-labelled SigE 17-133 alone and with a 2-fold excess of unlabelled CsfB A48E; 298 K, 700 MHz; 50 mM HEPES pH 7.5, 150 mM KCl, 0.5 mM TCEP
Conditions: both partners purified

B1: CsfB^A48E (natural protein, B. subtilis)
chain: MDETVKLNHTCVICDQEKNRGIHLYTKFICLDCERKVISTSTSDPDYEFYVKKLKSIHTPPLYS
notes: Anti-sigma factor CsfB (Gin), B. subtilis, with the stabilising mutation A48E; In pNIC28 (TEV-cleavable N-terminal His tag); also called CsfB/Gin; Gin; source: E. coli BL21(DE3)pLysS, purified (IMAC, SEC)
Question: Does B1 bind?
Answer: binds
